This is an account of results in US20200308246A1 (published 2020).

In assay [1] the target is T1, MLL (KMT2A), MLL-pP peptide on HLA-B*07:02 (human).
T1 peptide: RVR[pS]PTRSP
The assay can be described thus: multimer staining.

The target of assay [2] is T2, MLL-pM-A7 peptide on HLA-B*07:02 (human).
T2 peptide: EPR[pS]PSASM
The experiment in a line: activation reporter or marker.

Assay [3] addresses T3, MLL-pM-A8 peptide on HLA-B*07:02 (human).
T3 peptide: EPR[pS]PSHAM
The experiment in a line: activation reporter or marker.

Assay [4] deals with T4, MLL-pM-A9 peptide on HLA-B*07:02 (human).
T4 peptide: EPR[pS]PSHSA
The experiment in a line: activation reporter or marker.

The target in assay [5] is T5, MLL-pM-A1 peptide on HLA-B*07:02 (human).
T5 peptide: APR[pS]PSHSM
The assay can be described thus: activation reporter or marker.

Assay [6] deals with T6, MLL-pM-A2 peptide on HLA-B*07:02 (human).
T6 peptide: EAR[pS]PSHSM
The assay can be described thus: activation reporter or marker.

Assay [7] addresses T7, MLL-pM-A3 peptide on HLA-B*07:02 (human).
T7 peptide: EPA[pS]PSHSM
The assay can be described thus: activation reporter or marker.

Assay [8] deals with T8, MLL-pM-A4 peptide on HLA-B*07:02 (human).
T8 peptide: EPRAPSHSM
The assay can be described thus: activation reporter or marker.

The target in assay [9] is T9, MLL-pM-A5 peptide on HLA-B*07:02 (human).
T9 peptide: EPR[pS]ASHSM
The assay can be described thus: activation reporter or marker.

Assay [10] has as its target T10, MLL-pM-A6 peptide on HLA-B*07:02 (human).
T10 peptide: EPR[pS]PAHSM
The experiment in a line: activation reporter or marker.

Assay [11] deals with T1, MLL (KMT2A), MLL-pP peptide on …. The assay can be described thus: activation reporter or marker.

Where no end group is shown, it is not given here. [ ]: non-standard residue; d: D form. pS = N[C@@H](COP(=O)(O)O)C(=O)O

B1: TCR0085 (TCR, V domains shown)
Valpha: KQEVTQIPAALSVPEGENLVLNCSFTDSAIYNLQWFRQDPGKGLTSLLLIQSSQREQTSGRLNASLDKSSGRSTLYIAASQPGDSATYLCAVMLWNQGGKLIFGQGTELSVKP
Vbeta: KAGVTQTPRYLIKTRGQQVTLSCSPISGHRSVSWYQQTPGQGLQFLFEYFSETQRNKGNFPGRFSGRQFSNSRSEMNVSTLELGDSALYLCASSLGRGYEQYFGPGTRLTVT
Consider B1, for which the binding result is listed as “recognises” in assay [1]; “no recognition” in [2]; “no recognition” in assay [3]; “no recognition” in assay [4]; “no recognition” in assay [5]; “no recognition” in assay [6]. The binding result in assay [7], in [8], in assay [9] and in [10] was “no recognition” in each case.

B2: TCR0077 (TCR, V domains shown)
Valpha: TQLLEQSPQFLSIQEGENLTVYCNSSSVFSSLQWYRQEPGEGPVLLVTVVTGGEVKKLKRLTFQFGDARKDSSLHITAAQPGDTGLYLCAGYGGGSNYKLTFGAGTRLTVKP
Vbeta: EAQVTQNPRYLITVTGKKLTVTCSQNMNHEYMSWYRQDPGLGLRQIYYSMNVEVTDKGDVPEGYKVSRKEKRNFPLILESPSPNQTSLYFCASRLTGRVHGYTFGPGTRLTVL
Take B2: the binding result in [2] is “no recognition”; in assay [3] it was “recognises”; in [4], “no recognition”; in [11], “no recognition”; in [5], “no recognition”; in [6] it was “no recognition”. For the same molecule, the binding result is listed as “recognises” in assay [7], “no recognition” in assay [8], “no recognition” in assay [9] and “no recognition” in assay [10].
